These results are taken from patent US20230192797A1 (published 2023).

Test [1] has as its target T1, PD-L1 on the surface of CHO-PD-L1 cells (UniProt Q9NZQ7 19-290, limits assumed). The test can be described thus: cell-based or functional assay.
For test [2], the target named is T2, cynomolgus monkey PD-L1-His protein (Sino Biological, Cat. 90251-C08H) (cynomolgus monkey, UniProt G7PSE7 19-239).
T2 construct: Bought reagent; also called cynomolgus PD-L1 recombinant protein; not shown: His tag
The test can be described thus: SPR (Biacore T200), antibody captured on the chip, PD-L1-His injected, 1:1 model, 25 C.

Test [3] concerns the target T3, recombinant human PD-L1-His protein (Novoprotein, Cat. 315) (human, UniProt Q9NZQ7 19-239).
T3 construct: Bought reagent; also called human PD-L1 recombinant protein; not shown: His tag
Described as above.

Test [4] addresses T1, PD-L1 on the surface of CHO-PD-L1 cells. The test can be described thus: flow cytometry (FACS) on CHO-PD-L1 cells, anti-human IgG PE detection. For orientation: Flow cytometry measures light scatter and fluorescence of single cells or particles in a stream.
Test [5] deals with T4, Human PD-L1 recombinant protein (Sino Biological, Cat.10084-H05H) (human, UniProt Q9NZQ7 19-239).
T4 construct: also called human PD-L1 protein; PD-L1 protein
The test can be described thus: competitive ELISA: human PD-L1 coated, antibody titrated against human PD-1-His (competitor), anti-His-HRP detection. The protocol: Human PD-L1 recombinant protein (Sino Biological, Cat.10084-H05H) was diluted with carbonate buffer and added to 96-well ELISA plate at a final concentration of 1 μg/ml. […] The competitive binding curve of the tested antibody could be drawn by matching the antibody concentration to the OD value, and the IC50 value could be calculated.

T1 sequence (Q9NZQ7 19-290 limits assumed): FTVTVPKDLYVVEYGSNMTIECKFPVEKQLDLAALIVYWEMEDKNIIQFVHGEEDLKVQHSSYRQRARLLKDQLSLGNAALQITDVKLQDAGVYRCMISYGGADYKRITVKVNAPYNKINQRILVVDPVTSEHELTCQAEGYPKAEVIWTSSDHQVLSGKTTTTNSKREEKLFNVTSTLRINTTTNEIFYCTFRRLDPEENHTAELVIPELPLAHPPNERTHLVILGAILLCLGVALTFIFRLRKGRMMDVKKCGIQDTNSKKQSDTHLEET
T4 sequence (Q9NZQ7 19-239 limits assumed): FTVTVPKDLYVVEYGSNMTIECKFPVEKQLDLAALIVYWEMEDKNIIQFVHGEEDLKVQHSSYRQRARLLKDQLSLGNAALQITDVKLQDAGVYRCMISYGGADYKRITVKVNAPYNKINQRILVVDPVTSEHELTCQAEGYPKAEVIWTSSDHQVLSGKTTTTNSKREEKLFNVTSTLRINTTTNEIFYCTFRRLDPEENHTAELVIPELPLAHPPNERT
T3 sequence (Q9NZQ7 19-239 limits assumed): as above
T2 sequence (G7PSE7 entry or part of it C08H C08H): as the sequence (Q9NZQ7 19-239 limits assumed) above, with A33T, A34S, S62N, R68Q, Q82R, F173L, T185A, T192I, H215L counted along it

B1: 794-h1-71 (antibody, human IgG1, kappa, V domains shown)
VH: QVQLQQSGPGLVKPSQTLSLTCAVSGDSITSGYWNWIRKFPSRGLEYMGYISYSGSTYYNPFLKSRISINRDTSKNQYYLQLNSVTPEDTAVYYCAKMGDWLAWFAYWGQGTLVTVSS
VL: EIVMTQSPPTLSLSPGERVTLSCKSSQSLLYSSNQKNSLAWYQQKPGQAPRLLIYWASTRESGIPARFSGSGSGTDFTLTISSLQPEDFAVYYCQQYYGYPYTFGQGTKLEIKR
notes: also called humanized PD-L1 antibody
Broadly, the Kd is the equilibrium constant for the complex coming apart. What is called EC50 is the concentration that produces a half-maximal response. For orientation: IC50 means the midpoint of a concentration-inhibition curve. B1: in test [1], the “EC50 of NFAT-controlled luminescent reporter signal (RLU), Jurkat-PD-1 cells co-incubated with CHO-PD-L1 cells” value was 0.166 µg/mL. In addition, the Kd in test [2] was found to be 0.937 nM; in test [3], 1.79 nM. The same molecule yielded an EC50 in test [4] of 0.0384 µg/mL. The IC50 in test [5] came to 0.849 nM.
